The assay has as its target myc-tagged TRIM25 WT (tripartite motif-containing protein 25), Q14258. Description: co-IP; myc IP (anti-myc beads) of myc-TRIM25 WT from lysates of ZAP KO 293T cells co-transfected with FLAG-ZAPS or FLAG-ZAPL WT or mutants; FLAG-ZAP detected by immunoblot; FLAG IP buffer (100 mM Tris-HCl 8.0, 150 mM NaCl, 5 mM EDTA, 1 mM DTT, 5% glycerol, 0.1% NP-40), 4°C, 45 min; FLAG IP band divided by myc IP band (ImageJ). The note with it: remark: other sources report otherwise.

Several values for one entry are separate records, joined by “and”; a condition that tells them apart may be missing. Equal entries are not always repeated.

Sequence of myc-tagged TRIM25 WT (tripartite motif-containing protein 25), Q14258 (Q14258 whole entry): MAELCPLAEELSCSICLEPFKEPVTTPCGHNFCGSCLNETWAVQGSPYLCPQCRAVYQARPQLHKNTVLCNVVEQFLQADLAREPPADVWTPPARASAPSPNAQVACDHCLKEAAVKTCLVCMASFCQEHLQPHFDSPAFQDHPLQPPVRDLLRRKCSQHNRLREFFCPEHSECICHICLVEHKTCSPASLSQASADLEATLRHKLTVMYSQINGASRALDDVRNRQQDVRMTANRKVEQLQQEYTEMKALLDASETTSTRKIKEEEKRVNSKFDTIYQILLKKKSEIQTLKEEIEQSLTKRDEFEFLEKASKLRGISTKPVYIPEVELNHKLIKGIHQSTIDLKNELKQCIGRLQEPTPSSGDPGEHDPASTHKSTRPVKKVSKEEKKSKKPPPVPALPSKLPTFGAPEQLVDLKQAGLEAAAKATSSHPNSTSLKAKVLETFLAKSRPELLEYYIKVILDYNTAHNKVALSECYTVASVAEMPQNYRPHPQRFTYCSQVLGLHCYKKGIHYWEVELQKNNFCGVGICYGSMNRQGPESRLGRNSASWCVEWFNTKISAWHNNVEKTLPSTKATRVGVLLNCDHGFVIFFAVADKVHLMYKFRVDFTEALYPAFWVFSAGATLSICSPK

B1: FLAG-tagged ZAPS WT (zinc finger antiviral protein, short isoform), Q7Z2W4-2 1-699 (natural protein)
chain: MADPEVCCFITKILCAHGGRMALDALLQEIALSEPQLCEVLQVAGPDRFVVLETGGEAGITRSVVATTRARVCRRKYCQRPCDNLHLCKLNLLGRCNYSQSERNLCKYSHEVLSEENFKVLKNHELSGLNKEELAVLLLQSDPFFMPEICKSYKGEGRQQICNQQPPCSRLHICDHFTRGNCRFPNCLRSHNLMDRKVLAIMREHGLNPDVVQNIQDICNSKHMQKNPPGPRAPSSHRRNMAYRARSKSRDRFFQGSQEFLASASASAERSCTPSPDQISHRASLEDAPVDDLTRKFTYLGSQDRARPPSGSSKATDLGGTSQAGTSQRFLENGSQEDLLHGNPGSTYLASNSTSAPNWKSLTSWTNDQGARRKTVFSPTLPAARSSLGSLQTPEAVTTRKGTGLLSSDYRIINGKSGTQDIQPGPLFNNNADGVATDITSTRSLNYKSTSSGHREISSPRIQDAGPASRDVQATGRIADDADPRVALVNDSLSDVTSTTSSRVDDHDSEEICLDHLCKGCPLNGSCSKVHFHLPYRWQMLIGKTWTDFEHMETIEKGYCNPGIHLCSVGSYTINFRVMSCDSFPIRRLSTPSSVTKPANSVFTTKWIWYWKNESGTWIQYGEEKDKRKNSNVDSSYLESLYQSCPRGVVPFQAGSRNYELSFQGMIQTNIASKTQKDVIRRPTFVPQWYVQQMKRGPE
As for B1, the ZAP-TRIM25 interaction (co-IP, FLAG-ZAP band over myc-TRIM25 band, ImageJ) was 0.131 and 0.304.

(Values after publication PMC9253567.)
